Where two headings read alike, the source gives them in different places.
Columns and labels:
SEC [1] = molecular target: the molecule itself; test: SEC
SEC [2] = molecular target: the molecule itself; test: SEC; remark: listed apart in the source

B1: Mycobacterium smegmatis guanosine 5'-monophosphate reductase (Msm GMPR), product of the guaB1 gene (enzyme, UniProt A0QYE8 1-478, looked up)
chain: MRFLDGHTPAYDLTYNDVFVVPGRSDVASRFDVDLSTVDGSGTTIPVVVANMTAVAGRRMAETVARRGGIVVLPQDLPITAVSETVDFVKSRDLVVDTPVTLSPEDSVSDANALLHKRAHGAAVVVFEGRPIGLVTEANCAGVDRFARVRDIALSDFVTAPVGTDPREVFDLLEHAPIDVAVMTAPDGTLAGVLTRTGAIRAGIYTPAVDAKGRLRIAAAVGINGDVGAKAQALAEAGADLLVIDTAHGHQAKMLDAIKAVASLDLGLPLVAGNVVSAEGTRDLIEAGASIVKVGVGPGAMCTTRMMTGVGRPQFSAVVECAAAARQLGGHVWADGGVRHPRDVALALAAGASNVMIGSWFAGTYESPGDLLFDRDDRPYKESYGMASKRAVAARTAGDSSFDRARKGLFEEGISTSRMSLDPARGGVEDLLDHITSGVRSTCTYVGAANLPELHEKVVLGVQSAAGFAEGHPLPAGW
stoichiometry N (SEC [1]): 4 | stoichiometry N (SEC [2]): 8

— article doi:10.1101/2021.08.05.455185 (bioRxiv, 2021)
